Laboratory results: patent publication US20190169286A1 (Chugai, published 2019)
Changes are numbered by the printed parent chain. Numbers in names are those of the source.

B1: Hr9/L16 (antibody, human IgG1, kappa, name in Kabat numbering, V domains shown)
VH: QVQLVESGGGLVQPGGSLRLSCAASGFTFSDYYLSWVRQAPGKGLEWVGLIRNKANGYTREYSASVKGRFTISRDDSKNSLYLQMSSLKTEDTAVYYCARENYRYDVELAYWGQGTLVTVSS
VL: DIQMTQSPSSLSASVGDRVTITCRASEIIYSYLAWYQQKPGKAPKLLIYNAKTHADGVPSRFSGSGSGTDFTFTISSLQPEDIATYYCQHHFGFPRTFGQGTKVEIKR
notes: WS4L-k0MT with L54H
B2: H1009/L395-F1886s (H1009-F1886s / L395-k0MT) (antibody)
heavy: QVQLVESGGGLVQPGGSLRLSCAASGFTFSDYYLSWVRQAPGKGLEWVGLIRNKDNYHTPEYSASVKGRFTISRDDSKNSLYLTMSDLKTEDTAVYYCARENHRYDVELAYWGQGTLVTVSSASTKGPSVFPLAPSSKSTSGGTAALGCLVKDYFPEPVTVSWNSGALTSGVHTFPAVLQSSGLYSLSSVVTVPSSSLGTQTYICNVNHKPSNTKVDKKVEPKSCDKTHTCPPCPAPELRRGPKVFLFPPKPKDTLMISRTPEVTCVVVDVSHEDPEVKFNWYVDGVEVHNAKTKPREEQYNSTYRVVSVLTVLHQDWLNGKEYKCKVSNKALPAPIEKTISKAKGQPREPQVYTLPPSREEMTKNQVSLTCLVKGFYPSDIAVEWESNGQPENNYKTTPPVLDSDGSFFLYSKLTVDKSRWQQGNVFSCSVLHEALHAHTTRKELSLSP
light: DIQMTQSPSSLSASVGDRVTITCRASEIIYSYLAWYQQKPGKAPKLLIYKAKTHADGVPSRFSGSGSGTDFTFTISSLQPEDIATYYCKHHFGFPRTFGQGTKVEIKRTVAAPSVFIFPPSDEQLKSGTASVVCLLNNFYPREAKVQWKVDNALQSGNSQESVTEQDSKDSTYSLSSTLTLSKADYEKHKVYACEVTHQGLSSPVTKSFNRGEC
B3: H1009/L395-F1886m (antibody)
heavy: B2 heavy with R240L, R241G, K244S
light: B2 light
B4: H1009/L395-F1974m (H1009-F1974m / L395-k0MT) (antibody)
heavy: B2 heavy with K244S, A332G, A335S, P336S
light: B2 light
notes: also called antibody H1009/L395-F1974m

Tests used:
human IL-8 [1] = target: T1, human IL-8 (human, UniProt P10145 23-99, limits assumed); assay: SPR Biacore T200, Protein A/G capture, IL-8 analyte, pH 7.4, 37C
T1 construct: also called hIL-8; hIL8
T1 sequence (P10145 23-99 limits assumed): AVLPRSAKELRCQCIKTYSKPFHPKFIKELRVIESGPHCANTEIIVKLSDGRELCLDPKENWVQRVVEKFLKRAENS
Description: (§2) An appropriate amount of Protein A/G (PIERCE) was immobilized onto Sensor chip CM4 (GE Healthcare) by the amine coupling method and the antibodies of interest was captured. […] To regenerate the sensor chip, 10 mM glycine-HCl at pH 1.5 was used. All measurements were carried out at 37° C. […] The BIACORE T200 Evaluation Software (GE Healthcare) was used to calculate each parameter.

human IL-8 [2] = target: T1, human IL-8; assay: SPR Biacore T200, 37C; ratio between pH 7.4 and pH 5.8
Description: as §2

human IL-8 [3] = target: T1, human IL-8; assay: SPR Biacore T200, Protein A/G capture, IL-8 analyte, pH 5.8, 37C
Description: as §2

[4] = target: T2, soluble cynomolgus monkey FcγRIIIa (His-tagged) (cynomolgus monkey, UniProt Q8SPW2 17-208); assay: SPR (Biacore T200), antibody captured on rProtein L on a CM4 chip, soluble His-tagged FcγR injected, HBS-EP+, 20 °C
T2 construct: also called cynoFcγRIIIa; not shown: His tag
T2 sequence (Q8SPW2 17-208 limits assumed): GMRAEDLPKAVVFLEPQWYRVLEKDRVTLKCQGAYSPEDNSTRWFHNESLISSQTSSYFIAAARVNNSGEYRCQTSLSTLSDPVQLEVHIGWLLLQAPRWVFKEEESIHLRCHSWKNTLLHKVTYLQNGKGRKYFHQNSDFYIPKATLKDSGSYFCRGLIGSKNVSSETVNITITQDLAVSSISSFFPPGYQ
Description: (§1) Soluble FcγRIa and FcγRIIIa in both human and cynomolgus monkey were produced in the form of His-tagged molecules by methods known to those of ordinary skill in the art. […] Next, soluble FcγRIa or FcγRIIIa was injected with a running buffer (used as a reference solution), and was made to interact with the antibodies captured onto the sensor chip. HBS-EP+(GE Healthcare) was used as the running buffer, and HBS-EP+ was also used to dilute the soluble FcγRIa or FcγRIIIa. […] All measurements were carried out at 20° C.

[5] = target: T3, soluble human FcγRIIIa (His-tagged) (human, UniProt P08637 17-208); assay: as above
T3 construct: also called hFcγRIIIa; not shown: His tag
T3 sequence (P08637 17-208 limits assumed): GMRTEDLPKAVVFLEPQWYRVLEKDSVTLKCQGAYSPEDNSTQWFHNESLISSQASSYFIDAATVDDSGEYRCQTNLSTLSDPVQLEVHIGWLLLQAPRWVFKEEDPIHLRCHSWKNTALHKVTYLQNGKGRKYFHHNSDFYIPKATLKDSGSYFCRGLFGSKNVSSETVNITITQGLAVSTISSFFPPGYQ
Description: as §1

[6] = target: T4, soluble human FcγRIa (His-tagged) (human, UniProt P12314 16-292, limits assumed); assay: as above
T4 construct: also called hFcγRIa; not shown: His tag
T4 sequence (P12314 16-292 limits assumed): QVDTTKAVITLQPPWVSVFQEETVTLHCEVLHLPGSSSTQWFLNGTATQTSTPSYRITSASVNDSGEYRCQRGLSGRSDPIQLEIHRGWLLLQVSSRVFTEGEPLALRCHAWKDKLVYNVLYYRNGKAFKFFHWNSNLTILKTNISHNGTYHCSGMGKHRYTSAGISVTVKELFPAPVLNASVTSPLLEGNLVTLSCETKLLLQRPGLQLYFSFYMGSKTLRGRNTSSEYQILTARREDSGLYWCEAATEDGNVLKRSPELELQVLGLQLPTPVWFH
Description: as §1

Row | Binder | koff (human IL-8 [1]) | kon (human IL-8 [1]) | KD Ratio (pH 5.8/pH 7.4) (human IL-8 [2]) | Koff Ratio (pH 5.8/pH 7.4) (human IL-8 [2]) | kon Ratio (pH 7.4/pH 5.8) (human IL-8 [2]) | koff (human IL-8 [3]) | kon (human IL-8 [3]) | binding result [4] | binding result [5] | binding result [6]
1 | B1 | 9.57e-05 s⁻¹ | 890000 M⁻¹ s⁻¹ | 46.8 | 2.1 | 22.8 | 0.000197 s⁻¹ | 39100 M⁻¹ s⁻¹ | – | – | –
2 | B2 | – | – | – | – | – | – | – | no binding (tested: not given) | no binding (tested: not given) | no binding (tested: not given)
3 | B3 | – | – | – | – | – | – | – | binds | – | binds
4 | B4 | – | – | – | – | – | – | – | no binding (tested: not given) | no binding (tested: not given) | no binding (tested: not given)
